Data as given in article doi:10.64898/2025.12.21.695763.

Molecular target: Mycobacterium thermoresistibile (Mth) Class Ib ribonucleotide reductase catalytic α-subunit (NrdE), purified alone (M. thermoresistibile)
Test: SEC-MALS

Mycobacterium thermoresistibile (Mth) Class Ib ribonucleotide reductase catalytic α-subunit (NrdE), purified alone (enzyme)
stoichiometry N: 2
